Columns and labels:
[1] = tested on: GST-BRCA1 fusion protein A509+S694 (T509A mutant, nucleotides 1323-2538)
[2] = tested on: GST-BRCA1 fusion protein T1246 (nucleotides 3714-4310)
[3] = tested on: purified full length BRCA1 protein (ProteinOne)
[4] = tested on: GST-BRCA1 fusion protein with a T509A mutation (A509, nucleotides 1323-1886)
[5] = tested on: GST-BRCA1 fusion protein wild-type T509+S694 (nucleotides 1323-2538)
[6] = tested on: GST-BRCA1 fusion protein E509+S694 (phospho-mimic T509E mutant, nucleotides 1323-2538)
[7] = tested on: GST-BRCA1 fusion protein S694/T696 (nucleotides 1926-2538)
Sequence of GST-BRCA1 fusion protein S694/T696 (nucleotides 1926-2538) (chain, as listed by the source): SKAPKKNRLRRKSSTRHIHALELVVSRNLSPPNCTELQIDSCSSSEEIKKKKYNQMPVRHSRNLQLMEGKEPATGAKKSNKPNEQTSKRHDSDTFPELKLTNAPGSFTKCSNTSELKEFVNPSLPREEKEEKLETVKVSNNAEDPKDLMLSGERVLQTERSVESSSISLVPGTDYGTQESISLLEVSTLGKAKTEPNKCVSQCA

[8] = tested on: GST-BRCA1 fusion protein T509 (nucleotides 1323-1886)
Sequence of GST-BRCA1 fusion protein T509 (nucleotides 1323-1886) (chain, as listed by the source): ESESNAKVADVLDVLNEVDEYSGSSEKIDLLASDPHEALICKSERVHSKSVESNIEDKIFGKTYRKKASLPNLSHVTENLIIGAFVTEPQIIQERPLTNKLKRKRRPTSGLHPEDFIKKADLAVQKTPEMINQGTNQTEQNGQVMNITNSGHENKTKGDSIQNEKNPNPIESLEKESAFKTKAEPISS

Sequence of GST-BRCA1 fusion protein wild-type T509+S694 (nucleotides 1323-2538) (chain, as listed by the source): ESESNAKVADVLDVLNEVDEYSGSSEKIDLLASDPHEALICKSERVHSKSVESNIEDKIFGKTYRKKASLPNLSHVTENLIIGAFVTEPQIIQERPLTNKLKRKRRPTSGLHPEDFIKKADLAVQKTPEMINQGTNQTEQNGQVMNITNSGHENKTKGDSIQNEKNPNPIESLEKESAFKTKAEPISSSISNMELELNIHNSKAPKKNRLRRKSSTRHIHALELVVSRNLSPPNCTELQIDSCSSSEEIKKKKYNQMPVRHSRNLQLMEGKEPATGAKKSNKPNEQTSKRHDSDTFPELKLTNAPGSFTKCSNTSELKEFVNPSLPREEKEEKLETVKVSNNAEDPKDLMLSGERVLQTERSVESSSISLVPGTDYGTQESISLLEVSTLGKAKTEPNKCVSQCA
Sequence of GST-BRCA1 fusion protein T1246 (nucleotides 3714-4310) (chain, as listed by the source): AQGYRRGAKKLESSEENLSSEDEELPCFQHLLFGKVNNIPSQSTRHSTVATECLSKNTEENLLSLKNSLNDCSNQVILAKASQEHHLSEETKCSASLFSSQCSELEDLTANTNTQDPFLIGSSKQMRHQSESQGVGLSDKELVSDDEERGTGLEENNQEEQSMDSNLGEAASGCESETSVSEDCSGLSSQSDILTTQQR

purified active Akt1
in vitro Akt kinase assay (phosphorylation signal) [1]: equally phosphorylated by Akt, with the intensity of these signals approximately equal to one half of the signal obtained with the wild-type T509+S694 construct | in vitro Akt kinase assay (phosphorylation) [2]: T1246 did not appear to be phosphorylated | in vitro kinase reaction (phosphorylation) [3]: full length BRCA1 is phosphorylated by Akt in vitro | in vitro Akt kinase assay (phosphorylation) [4]: A fusion protein with a T509A mutation was not phosphorylated | in vitro Akt kinase assay (phosphorylation signal) [5]: the signal obtained with the wild-type T509+S694 construct | in vitro Akt kinase assay (phosphorylation signal) [6]: equally phosphorylated by Akt, with the intensity of these signals approximately equal to one half of the signal obtained with the wild-type T509+S694 construct | in vitro Akt kinase assay (phosphorylation) [7]: both the T509 and S694/T696 constructs were strongly phosphorylated | in vitro Akt kinase assay (phosphorylation) [8]: both the T509 and S694/T696 constructs were strongly phosphorylated
